# Laboratory results reported in article PMC2832797 (Biochemistry, 2010).
# B1: N-terminal His-tagged human alpha4 (amino acid residues 1-222) (domain or fragment, UniProt P78318 1-222, looked up)
# chain: MAAEDELQLPRLPELFETGRQLLDEVEVATEPAGSRIVQEKVFKGLDLLEKAAEMLSQLDLFSRNEDLEEIASTDLKYLLVPAFQGALTMKQVNPSKRLDHLQRAREHFINYLTQCHCYHVAEFELPKTMNNSAENHTANSSMAYPSLVAMASQRQAKIQRYKQKKELEHRLSAMKSAVESGQADDERVREYYLLHLQRWIDISLEEIESIDQEIKILRERD
# Target: N-terminal His-tagged ubiquitin (15N-labelled) (UniProt P0CG48 1-76, 15N-labelled)
# Assay: NMR titration
binder,measurement,value
B1,Kd,> 100 µM
